The values that follow come from patent US20100092497A1, “METHODS OF IMMUNE OR HAEMATOLOGICAL ENHANCEMENT, INHIBITING TUMOUR FORMATION OR GROWTH, AND TREATING OR PREVENTING CANCER” (priority 2006, published 2010).

The test system of assay [1] is EL-4 T cell thymic lymphoma. The assay can be described thus: EL-4 tumour challenge in mice fed experimental diets (tumour growth, rejection, response to paclitaxel). The class given is in vivo, C57BL/6 mice. Particulars: for tumour response after paclitaxel: paclitaxel 30 mg/Kg i.p. at ~0.6 cm; for rank of efficacy in sensitising tumours to paclitaxel: diet 20 g Lf per 2.4 Kg plus paclitaxel 30 mg/Kg.

Another assay relates to EL-4 target cells. The assay can be described thus: Anti-tumour cytolytic activity of splenocytes (CTL assay). The class given is cell-based, mouse. Particulars: for increase in anti-tumour cytolytic activity of splenocytes compared to control mice: Example 1, day 77; for increase in anti-tumour cytolytic activity of splenocytes: Example 2, after paclitaxel. As to the method: Splenocytes were harvested 28 days following tumour cell injection, as specified. They were incubated at 37° C. with EL-4 target cells in graded E:T ratios in 96-well round-bottom plates. After a 4-hour incubation, 50 μl of supernatant was collected, and lysis was measured using the Cyto Tox 96 Assay Kit (Promega, Madison, Wis., USA). Background controls for non-specific target and effector cell lysis were included. After background subtraction, percentage of cell lysis was calculated using the formula: 100×(experimental-spontaneous effector-spontaneous target/maximum target-spontaneous target).

A further assay relates to IL-18. The following applies: as reported in WO 03/099323; cited from earlier work.
The mark [2] stands for this setting: 20 g Lf per 2.4 Kg diet in combination with paclitaxel treatment.

B1: Fe-saturated Lf: Bovine lactoferrin of ~100% Fe saturation prepared with ferric nitrilo-triacetate (protein, UniProt P24627 20-708, looked up)
Lactotransferrin: APRKNVRWCTISQPEWFKCRRWQWRMKKLGAPSITCVRRAFALECIRAIAEKKADAVTLDGGMVFEAGRDPYKLRPVAAEIYGTKESPQTHYYAVAVVKKGSNFQLDQLQGRKSCHTGLGRSAGWIIPMGILRPYLSWTESLEPLQGAVAKFFSASCVPCIDRQAYPNLCQLCKGEGENQCACSSREPYFGYSGAFKCLQDGAGDVAFVKETTVFENLPEKADRDQYELLCLNNSRAPVDAFKECHLAQVPSHAVVARSVDGKEDLIWKLLSKAQEKFGKNKSRSFQLFGSPPGQRDLLFKDSALGFLRIPSKVDSALYLGSRYLTTLKNLRETAEEVKARYTRVVWCAVGPEEQKKCQQWSQQSGQNVTCATASTTDDCIVLVLKGEADALNLDGGYIYTAGKCGLVPVLAENRKSSKHSSLDCVLRPTEGYLAVAVVKKANEGLTWNSLKDKKSCHTAVDRTAGWNIPMGLIVNQTGSCAFDEFFSQSCAPGADPKSRLCALCAGDDQGLDKCVPNSKEKYYGYTGAFRCLAEDVGDVAFVKNDTVWENTNGESTADWAKNLNREDFRLLCLDGTRKPVTEAQSCHLAVAPNHAVVSRSDRAAHVKQVLLHQQALFGKNGKNCPDKFCLFKSETKNLLFNDNTECLAKLGGRPTYEEYLGTEYVTAIANLKKCSTSPLLEACAFLTR
modifications: iron-saturated (holo)
notes: Bovine lactoferrin of ~100% Fe saturation prepared with ferric nitrilo-triacetate
In the case of B1, the “tumour response after paclitaxel in mice on Lf diet” value in assay [1] (Example 1, diet 20 g Lf per 2.4 Kg plus paclitaxel 30 mg/Kg i.p. at tumours ~0.6 cm) is “regressed to less than half their size within two weeks of administering paclitaxel, and disappeared altogether a week later”. Further, the “mice that completely rejected the tumour challenge” value in assay [1] (Example 1, diet with 20 g of Lf per 2.4 Kg, ten mice) was “one of ten”; in assay [1] (Example 2, 1 g Fe-Lf diet), “one of ten”; in assay [1] (Example 2, 5 g Fe-Lf diet), “two of ten”; in assay [1] (Example 2, 25 g Fe-Lf diet), “three of ten”. Moreover, the “tumour growth rate compared to control diet” value was “grew significantly (p<0.05 at days 35-49) more slowly” in assay [1] (Example 2, 5 and 25 g per 2.4 Kg of diet); “did not differ greatly from that of mice fed the control diet” in assay [1] (Example 2, lowest and highest doses (1 and 100 g per 2.4 Kg of diet)). For the same molecule, the “tumour response after paclitaxel” value in assay [1] (Example 2, 100 g per 2.4 Kg of diet) is “regressed over two weeks, but then re-grew”; in assay [1] (Example 2, all but the 100 g Fe-Lf diet (1, 5, 25 g per 2.4 Kg)), “rapidly regressed and completely disappeared over the following three to four weeks”. Also, the “increase in anti-tumour cytolytic activity of splenocytes compared to control mice” value (from here on “increase … to control mice”) in the assay with EL-4 target cells (setting [2]) is 6.5 fold; with EL-4 target cells (the one mouse which completely resisted the tumour challenge), 6 fold. The “increase in anti-tumour cytolytic activity of splenocytes” value with EL-4 target cells (5 g diet) turned out to be 6.7 fold; in the assay with EL-4 target cells (25 g diet), 7 fold; in the assay with EL-4 target cells (100 g diet), 1.5 fold. Also, the “increase in anti-tumour cytolytic activity of splenocytes, agent by itself” value with EL-4 target cells (Example 4, high dose vitamin D (45.2 mg/Kg) by itself or Fe-saturated Lf) is on record as 1.9 fold.

B2: 50% Fe-saturated Lf: Bovine lactoferrin supplemented with Fe to ~50% saturation (protein, UniProt P24627 20-708, looked up)
Lactotransferrin: APRKNVRWCTISQPEWFKCRRWQWRMKKLGAPSITCVRRAFALECIRAIAEKKADAVTLDGGMVFEAGRDPYKLRPVAAEIYGTKESPQTHYYAVAVVKKGSNFQLDQLQGRKSCHTGLGRSAGWIIPMGILRPYLSWTESLEPLQGAVAKFFSASCVPCIDRQAYPNLCQLCKGEGENQCACSSREPYFGYSGAFKCLQDGAGDVAFVKETTVFENLPEKADRDQYELLCLNNSRAPVDAFKECHLAQVPSHAVVARSVDGKEDLIWKLLSKAQEKFGKNKSRSFQLFGSPPGQRDLLFKDSALGFLRIPSKVDSALYLGSRYLTTLKNLRETAEEVKARYTRVVWCAVGPEEQKKCQQWSQQSGQNVTCATASTTDDCIVLVLKGEADALNLDGGYIYTAGKCGLVPVLAENRKSSKHSSLDCVLRPTEGYLAVAVVKKANEGLTWNSLKDKKSCHTAVDRTAGWNIPMGLIVNQTGSCAFDEFFSQSCAPGADPKSRLCALCAGDDQGLDKCVPNSKEKYYGYTGAFRCLAEDVGDVAFVKNDTVWENTNGESTADWAKNLNREDFRLLCLDGTRKPVTEAQSCHLAVAPNHAVVSRSDRAAHVKQVLLHQQALFGKNGKNCPDKFCLFKSETKNLLFNDNTECLAKLGGRPTYEEYLGTEYVTAIANLKKCSTSPLLEACAFLTR
modifications: ~50% iron-saturated
For the molecule B2, the “rank of efficacy in sensitising tumours to paclitaxel” value (from here on “rank of efficacy”) in assay [1] (Example 1) is listed as 50% Fe-saturated Lf>native Lf>apoLf. The “increase … to control mice” value with EL-4 target cells (setting [2]) worked out at 1.5 fold.

B3: bovine lactoferrin: Single-chain iron-binding glycoprotein of 78 kDa present in bovine milk (protein, UniProt P24627 20-708, looked up)
Lactotransferrin: APRKNVRWCTISQPEWFKCRRWQWRMKKLGAPSITCVRRAFALECIRAIAEKKADAVTLDGGMVFEAGRDPYKLRPVAAEIYGTKESPQTHYYAVAVVKKGSNFQLDQLQGRKSCHTGLGRSAGWIIPMGILRPYLSWTESLEPLQGAVAKFFSASCVPCIDRQAYPNLCQLCKGEGENQCACSSREPYFGYSGAFKCLQDGAGDVAFVKETTVFENLPEKADRDQYELLCLNNSRAPVDAFKECHLAQVPSHAVVARSVDGKEDLIWKLLSKAQEKFGKNKSRSFQLFGSPPGQRDLLFKDSALGFLRIPSKVDSALYLGSRYLTTLKNLRETAEEVKARYTRVVWCAVGPEEQKKCQQWSQQSGQNVTCATASTTDDCIVLVLKGEADALNLDGGYIYTAGKCGLVPVLAENRKSSKHSSLDCVLRPTEGYLAVAVVKKANEGLTWNSLKDKKSCHTAVDRTAGWNIPMGLIVNQTGSCAFDEFFSQSCAPGADPKSRLCALCAGDDQGLDKCVPNSKEKYYGYTGAFRCLAEDVGDVAFVKNDTVWENTNGESTADWAKNLNREDFRLLCLDGTRKPVTEAQSCHLAVAPNHAVVSRSDRAAHVKQVLLHQQALFGKNGKNCPDKFCLFKSETKNLLFNDNTECLAKLGGRPTYEEYLGTEYVTAIANLKKCSTSPLLEACAFLTR
B3: in the assay on IL-18, the “intestinal IL-18 levels compared to recombinant human lactoferrin” value is “lesser increase” and the “serum levels of IL-18” value is reported as “did not increase”.

B4: native Lf: Bovine lactoferrin of greater than 90% purity from Fonterra, native Fe saturation (protein, UniProt P24627 20-708, looked up)
Lactotransferrin: APRKNVRWCTISQPEWFKCRRWQWRMKKLGAPSITCVRRAFALECIRAIAEKKADAVTLDGGMVFEAGRDPYKLRPVAAEIYGTKESPQTHYYAVAVVKKGSNFQLDQLQGRKSCHTGLGRSAGWIIPMGILRPYLSWTESLEPLQGAVAKFFSASCVPCIDRQAYPNLCQLCKGEGENQCACSSREPYFGYSGAFKCLQDGAGDVAFVKETTVFENLPEKADRDQYELLCLNNSRAPVDAFKECHLAQVPSHAVVARSVDGKEDLIWKLLSKAQEKFGKNKSRSFQLFGSPPGQRDLLFKDSALGFLRIPSKVDSALYLGSRYLTTLKNLRETAEEVKARYTRVVWCAVGPEEQKKCQQWSQQSGQNVTCATASTTDDCIVLVLKGEADALNLDGGYIYTAGKCGLVPVLAENRKSSKHSSLDCVLRPTEGYLAVAVVKKANEGLTWNSLKDKKSCHTAVDRTAGWNIPMGLIVNQTGSCAFDEFFSQSCAPGADPKSRLCALCAGDDQGLDKCVPNSKEKYYGYTGAFRCLAEDVGDVAFVKNDTVWENTNGESTADWAKNLNREDFRLLCLDGTRKPVTEAQSCHLAVAPNHAVVSRSDRAAHVKQVLLHQQALFGKNGKNCPDKFCLFKSETKNLLFNDNTECLAKLGGRPTYEEYLGTEYVTAIANLKKCSTSPLLEACAFLTR
Turning to B4, the “rank of efficacy” value in assay [1] (Example 1) is 50% Fe-saturated Lf>native Lf>apoLf. Moreover, the “increase … to control mice” value in the assay on EL-4 target cells (setting [2]) came to 3.4 fold.

B5: apoLf: Bovine lactoferrin with Fe removed by citric acid chelation (protein, UniProt P24627 20-708, looked up)
Lactotransferrin: APRKNVRWCTISQPEWFKCRRWQWRMKKLGAPSITCVRRAFALECIRAIAEKKADAVTLDGGMVFEAGRDPYKLRPVAAEIYGTKESPQTHYYAVAVVKKGSNFQLDQLQGRKSCHTGLGRSAGWIIPMGILRPYLSWTESLEPLQGAVAKFFSASCVPCIDRQAYPNLCQLCKGEGENQCACSSREPYFGYSGAFKCLQDGAGDVAFVKETTVFENLPEKADRDQYELLCLNNSRAPVDAFKECHLAQVPSHAVVARSVDGKEDLIWKLLSKAQEKFGKNKSRSFQLFGSPPGQRDLLFKDSALGFLRIPSKVDSALYLGSRYLTTLKNLRETAEEVKARYTRVVWCAVGPEEQKKCQQWSQQSGQNVTCATASTTDDCIVLVLKGEADALNLDGGYIYTAGKCGLVPVLAENRKSSKHSSLDCVLRPTEGYLAVAVVKKANEGLTWNSLKDKKSCHTAVDRTAGWNIPMGLIVNQTGSCAFDEFFSQSCAPGADPKSRLCALCAGDDQGLDKCVPNSKEKYYGYTGAFRCLAEDVGDVAFVKNDTVWENTNGESTADWAKNLNREDFRLLCLDGTRKPVTEAQSCHLAVAPNHAVVSRSDRAAHVKQVLLHQQALFGKNGKNCPDKFCLFKSETKNLLFNDNTECLAKLGGRPTYEEYLGTEYVTAIANLKKCSTSPLLEACAFLTR
modifications: iron-free (apo)
notes: Bovine lactoferrin with Fe removed by citric acid chelation
With B5, the “rank of efficacy” value in assay [1] (Example 1) was 50% Fe-saturated Lf>native Lf>apoLf. Moreover, the “increase … to control mice” value in the assay with EL-4 target cells (setting [2]) is listed as 2.4 fold.
